Laboratory results from EP4259652B1.

Biological target: monoclonal antibody NBH133A1-2B4
Test: competitive ELISA: standard peptide competes with coated …-K-Biotin for HRP-labelled antibody

IC50: 0.0117 µg/mL
B1: standard peptide … (peptide)
peptide: NLLNLNKDKE
